From article PMC8490876, “Functional Characterization of a L-2-Haloacid Dehalogenase From Zobellia galactanivorans Dsij^T Suggests a Role in Haloacetic Acid Catabolism and a Wide Distribution in Marine Environments” (Frontiers in Microbiology, 2021) come the findings set out here.

For this assay, the target named is recombinant ZgHAD, L-2-haloacid dehalogenase of Zobellia galactanivorans Dsij^T (Zobellia galactanivorans Dsij^T). Briefly: SEC; gel filtration on HiLoad 16/600 Superdex 200 pg after nickel affinity purification; oligomeric state of the recombinant protein in solution.

Consider “recombinant ZgHAD, L-2-haloacid dehalogenase of Zobellia galactanivorans Dsij^T (enzyme)”, for which the stoichiometry N amounted to 2.
